Experimental findings from PMC10786891, “Massively parallel profiling of RNA-targeting CRISPR-Cas13d” are described below.

The chains are these.
T1: EsCas13d, nuclease-dead (Eubacterium siraeum, UniProt B0MS50, R295A;H300A;R849A;H854A)
T1 sequence: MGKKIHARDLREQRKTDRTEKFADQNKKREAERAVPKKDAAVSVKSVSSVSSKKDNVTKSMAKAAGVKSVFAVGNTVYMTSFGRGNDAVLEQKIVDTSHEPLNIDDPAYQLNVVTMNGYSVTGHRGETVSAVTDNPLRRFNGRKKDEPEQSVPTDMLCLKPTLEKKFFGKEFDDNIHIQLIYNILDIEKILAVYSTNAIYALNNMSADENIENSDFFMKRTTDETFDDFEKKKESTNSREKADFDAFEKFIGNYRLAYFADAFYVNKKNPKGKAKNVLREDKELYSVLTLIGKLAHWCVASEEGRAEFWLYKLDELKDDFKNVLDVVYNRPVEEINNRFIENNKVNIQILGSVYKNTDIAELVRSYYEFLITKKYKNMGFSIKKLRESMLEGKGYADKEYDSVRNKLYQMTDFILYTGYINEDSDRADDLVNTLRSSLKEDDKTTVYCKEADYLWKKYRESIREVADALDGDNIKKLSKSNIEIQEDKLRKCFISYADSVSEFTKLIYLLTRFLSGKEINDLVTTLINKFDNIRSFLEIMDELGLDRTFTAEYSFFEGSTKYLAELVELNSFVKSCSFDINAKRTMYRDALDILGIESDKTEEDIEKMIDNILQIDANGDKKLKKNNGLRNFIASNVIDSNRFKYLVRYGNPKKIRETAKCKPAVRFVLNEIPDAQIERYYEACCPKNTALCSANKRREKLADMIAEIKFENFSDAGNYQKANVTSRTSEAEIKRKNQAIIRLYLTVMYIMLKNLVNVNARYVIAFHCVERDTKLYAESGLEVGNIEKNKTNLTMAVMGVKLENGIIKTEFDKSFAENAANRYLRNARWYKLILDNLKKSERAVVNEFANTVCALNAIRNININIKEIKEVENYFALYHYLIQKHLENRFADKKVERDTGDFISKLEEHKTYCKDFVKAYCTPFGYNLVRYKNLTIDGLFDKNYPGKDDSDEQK

B1: target 1 MT 5'PFS GUU 3'PFS AGA (mixed)
RNA 1: CACCCGUGCAAAAAUGCAGGGGUCUAAAACUGAGCGGAUAACCUCUCUAUGG
RNA 2: GGGAAUGGAUCCACAUCUACGAAUUCGUUCCAUAGAGAGGUUAUCCGCUCAAGAAGAUCGGAAGAGCACACGU
B2: target 1 MT 5'PFS GGA 3'PFS AAU (mixed)
RNA 1: CACCCGUGCAAAAAUGCAGGGGUCUAAAACUGAGCGGAUAACCUCUCUAUGG
RNA 2: GGGAAUGGAUCCACAUCUACGAAUUCGGACCAUAGAGAGGUUAUCCGCUCAAAUAGAUCGGAAGAGCACACGU
B3: target 1 MT 5'PFS UAA 3'PFS UUG (mixed)
RNA 1: CACCCGUGCAAAAAUGCAGGGGUCUAAAACUGAGCGGAUAACCUCUCUAUGG
RNA 2: GGGAAUGGAUCCACAUCUACGAAUUCUAACCAUAGAGAGGUUAUCCGCUCAUUGAGAUCGGAAGAGCACACGU
B4: target 1 MT 5'PFS CUC 3'PFS CAU (mixed)
RNA 1: CACCCGUGCAAAAAUGCAGGGGUCUAAAACUGAGCGGAUAACCUCUCUAUGG
RNA 2: GGGAAUGGAUCCACAUCUACGAAUUCCUCCCAUAGAGAGGUUAUCCGCUCACAUAGAUCGGAAGAGCACACGU
B5: target 1 MT 5'PFS GUU 3'PFS GGG (mixed)
RNA 1: CACCCGUGCAAAAAUGCAGGGGUCUAAAACUGAGCGGAUAACCUCUCUAUGG
RNA 2: GGGAAUGGAUCCACAUCUACGAAUUCGUUCCAUAGAGAGGUUAUCCGCUCAGGGAGAUCGGAAGAGCACACGU
B6: target 1 MT 5'PFS AAC 3'PFS AGG (mixed)
RNA 1: CACCCGUGCAAAAAUGCAGGGGUCUAAAACUGAGCGGAUAACCUCUCUAUGG
RNA 2: GGGAAUGGAUCCACAUCUACGAAUUCAACCCAUAGAGAGGUUAUCCGCUCAAGGAGAUCGGAAGAGCACACGU
B7: target 1 MT 5'PFS UAA 3'PFS UUC (mixed)
RNA 1: CACCCGUGCAAAAAUGCAGGGGUCUAAAACUGAGCGGAUAACCUCUCUAUGG
RNA 2: GGGAAUGGAUCCACAUCUACGAAUUCUAACCAUAGAGAGGUUAUCCGCUCAUUCAGAUCGGAAGAGCACACGU
B8: target 1 MT 5'PFS GGG 3'PFS GUG (mixed)
RNA 1: CACCCGUGCAAAAAUGCAGGGGUCUAAAACUGAGCGGAUAACCUCUCUAUGG
RNA 2: GGGAAUGGAUCCACAUCUACGAAUUCGGGCCAUAGAGAGGUUAUCCGCUCAGUGAGAUCGGAAGAGCACACGU
B9: target 1 MT 5'PFS CCG 3'PFS AAA (mixed)
RNA 1: CACCCGUGCAAAAAUGCAGGGGUCUAAAACUGAGCGGAUAACCUCUCUAUGG
RNA 2: GGGAAUGGAUCCACAUCUACGAAUUCCCGCCAUAGAGAGGUUAUCCGCUCAAAAAGAUCGGAAGAGCACACGU
B10: target 1 MT 5'PFS CCC 3'PFS UGC (mixed)
RNA 1: CACCCGUGCAAAAAUGCAGGGGUCUAAAACUGAGCGGAUAACCUCUCUAUGG
RNA 2: GGGAAUGGAUCCACAUCUACGAAUUCCCCCCAUAGAGAGGUUAUCCGCUCAUGCAGAUCGGAAGAGCACACGU
B11: target 1 MT 5'PFS GGA 3'PFS AAG (mixed)
RNA 1: CACCCGUGCAAAAAUGCAGGGGUCUAAAACUGAGCGGAUAACCUCUCUAUGG
RNA 2: GGGAAUGGAUCCACAUCUACGAAUUCGGACCAUAGAGAGGUUAUCCGCUCAAAGAGAUCGGAAGAGCACACGU
B12: target 1 MT 5'PFS UCG 3'PFS AUA (mixed)
RNA 1: CACCCGUGCAAAAAUGCAGGGGUCUAAAACUGAGCGGAUAACCUCUCUAUGG
RNA 2: GGGAAUGGAUCCACAUCUACGAAUUCUCGCCAUAGAGAGGUUAUCCGCUCAAUAAGAUCGGAAGAGCACACGU
B13: target 1 MT 5'PFS UCA 3'PFS AUC (mixed)
RNA 1: CACCCGUGCAAAAAUGCAGGGGUCUAAAACUGAGCGGAUAACCUCUCUAUGG
RNA 2: GGGAAUGGAUCCACAUCUACGAAUUCUCACCAUAGAGAGGUUAUCCGCUCAAUCAGAUCGGAAGAGCACACGU
B14: target 1 MT 5'PFS AAA 3'PFS CGA (mixed)
RNA 1: CACCCGUGCAAAAAUGCAGGGGUCUAAAACUGAGCGGAUAACCUCUCUAUGG
RNA 2: GGGAAUGGAUCCACAUCUACGAAUUCAAACCAUAGAGAGGUUAUCCGCUCACGAAGAUCGGAAGAGCACACGU
B15: target 1 MT 5'PFS UAA 3'PFS UUU (mixed)
RNA 1: CACCCGUGCAAAAAUGCAGGGGUCUAAAACUGAGCGGAUAACCUCUCUAUGG
RNA 2: GGGAAUGGAUCCACAUCUACGAAUUCUAACCAUAGAGAGGUUAUCCGCUCAUUUAGAUCGGAAGAGCACACGU
B16: target 1 MT 5'PFS GGA 3'PFS AAA (mixed)
RNA 1: CACCCGUGCAAAAAUGCAGGGGUCUAAAACUGAGCGGAUAACCUCUCUAUGG
RNA 2: GGGAAUGGAUCCACAUCUACGAAUUCGGACCAUAGAGAGGUUAUCCGCUCAAAAAGAUCGGAAGAGCACACGU
B17: target 1 MT 5'PFS UGU 3'PFS CAU (mixed)
RNA 1: CACCCGUGCAAAAAUGCAGGGGUCUAAAACUGAGCGGAUAACCUCUCUAUGG
RNA 2: GGGAAUGGAUCCACAUCUACGAAUUCUGUCCAUAGAGAGGUUAUCCGCUCACAUAGAUCGGAAGAGCACACGU
B18: target 1 MT 5'PFS GUU 3'PFS AGU (mixed)
RNA 1: CACCCGUGCAAAAAUGCAGGGGUCUAAAACUGAGCGGAUAACCUCUCUAUGG
RNA 2: GGGAAUGGAUCCACAUCUACGAAUUCGUUCCAUAGAGAGGUUAUCCGCUCAAGUAGAUCGGAAGAGCACACGU
B19: target 1 MT 5'PFS GGA 3'PFS AAC (mixed)
RNA 1: CACCCGUGCAAAAAUGCAGGGGUCUAAAACUGAGCGGAUAACCUCUCUAUGG
RNA 2: GGGAAUGGAUCCACAUCUACGAAUUCGGACCAUAGAGAGGUUAUCCGCUCAAACAGAUCGGAAGAGCACACGU
B20: target 1 MT 5'PFS CAU 3'PFS UUA (mixed)
RNA 1: CACCCGUGCAAAAAUGCAGGGGUCUAAAACUGAGCGGAUAACCUCUCUAUGG
RNA 2: GGGAAUGGAUCCACAUCUACGAAUUCCAUCCAUAGAGAGGUUAUCCGCUCAUUAAGAUCGGAAGAGCACACGU
B21: target 1 MT 5'PFS AAA 3'PFS CGU (mixed)
RNA 1: CACCCGUGCAAAAAUGCAGGGGUCUAAAACUGAGCGGAUAACCUCUCUAUGG
RNA 2: GGGAAUGGAUCCACAUCUACGAAUUCAAACCAUAGAGAGGUUAUCCGCUCACGUAGAUCGGAAGAGCACACGU
B22: target 1 MT 5'PFS UGU 3'PFS UAA (mixed)
RNA 1: CACCCGUGCAAAAAUGCAGGGGUCUAAAACUGAGCGGAUAACCUCUCUAUGG
RNA 2: GGGAAUGGAUCCACAUCUACGAAUUCUGUCCAUAGAGAGGUUAUCCGCUCAUAAAGAUCGGAAGAGCACACGU
B23: target 1 MT 5'PFS AAC 3'PFS AGA (mixed)
RNA 1: CACCCGUGCAAAAAUGCAGGGGUCUAAAACUGAGCGGAUAACCUCUCUAUGG
RNA 2: GGGAAUGGAUCCACAUCUACGAAUUCAACCCAUAGAGAGGUUAUCCGCUCAAGAAGAUCGGAAGAGCACACGU
B24: target 1 C2U,U11G (mixed)
RNA 1: CACCCGUGCAAAAAUGCAGGGGUCUAAAACUGAGCGGAUAACCUCUCUAUGG
RNA 2: GGGAAUGGAUCCACAUCUACGAAUUCGUACCAUAGAGAGGGUAUCCGCUUACCGAGAUCGGAAGAGCACACGU
B25: target 1 MT 5'PFS UUG 3'PFS UCU (mixed)
RNA 1: CACCCGUGCAAAAAUGCAGGGGUCUAAAACUGAGCGGAUAACCUCUCUAUGG
RNA 2: GGGAAUGGAUCCACAUCUACGAAUUCUUGCCAUAGAGAGGUUAUCCGCUCAUCUAGAUCGGAAGAGCACACGU
B26: target 1 insG 3' of 14,insA 3' of 7 (mixed)
RNA 1: CACCCGUGCAAAAAUGCAGGGGUCUAAAACUGAGCGGAUAACCUCUCUAUGG
RNA 2: GGGAAUGGAUCCACAUCUACGAAUUCGUACCAUAGAGAGGGUUAUCACGCUCACCGAGAUCGGAAGAGCACACGU
B27: target 1 MT 5'PFS UAA 3'PFS UUA (mixed)
RNA 1: CACCCGUGCAAAAAUGCAGGGGUCUAAAACUGAGCGGAUAACCUCUCUAUGG
RNA 2: GGGAAUGGAUCCACAUCUACGAAUUCUAACCAUAGAGAGGUUAUCCGCUCAUUAAGAUCGGAAGAGCACACGU

The target in this series is T1, EsCas13d, nuclease-dead. The series is described as follows: crRNA (strand 1, pre-loaded); Mg2+; 40 mM Tris-HCl pH 7.5, 150 mM NaCl, 6 mM MgCl2, 1 mM DTT, 0.1% Tween-20, 0.2 mg/ml BSA; 25 C; 10 min per concentration, then washed. The conditions noted are these: tags: His6-TwinStrep-SUMO cleaved; N-terminal SNAP kept (SNAP-Surface 488); label: 3' end held by stalled T7 RNA polymerase.
What is called Kd is a measure of binding affinity in units of concentration. B1 registered a Kd of 27.4 ± 5.25 nM.
As for B2, the figure is 21 ± 5.5 nM.
The molecule B3 returned a Kd of 16.8 ± 2.95 nM.
Regarding B4, the Kd is roughly 55 nM.
B5 came in with a Kd of 81 ± 29 nM.
B6 had a Kd of 59 ± 19 nM.
As for B7, the figure is 22.9 ± 4.25 nM; as for B8, 7.25 ± 0.95 nM.
B9: the equilibrium dissociation constant (Kd) came to 27.5 ± 8 nM.
With B10, the Kd came out at 8.55 ± 3.25 nM.
As for B11, the figure is 24.1 ± 3.95 nM.
In the case of B12, the affinity, expressed as Kd, was 37.5 ± 10.5 nM.
Molecule B13 yielded an equilibrium dissociation constant (Kd) of roughly 11 nM.
B14: the Kd came to 30 ± 14.5 nM.
As for B15, the figure is 49 ± 14 nM; as for B16, 41 ± 10 nM; as for B17, roughly 52 nM.
In the case of B18, binding was put at a Kd of 21.7 ± 3.85 nM.
B19 showed a Kd of 24.5 ± 5 nM.
B20 came in with a Kd of roughly 70 nM.
With B21, the Kd worked out at 35 ± 16 nM.
For B22, binding was characterised by a dissociation constant (Kd) of 56 ± 17 nM.
As to B23, the Kd was roughly 27 nM.
Consider B24, for which the affinity, expressed as Kd, was 18.4 ± 1 nM.
For the molecule B25, the Kd was found to be 20.9 ± 3.9 nM.
The result for B26 reads 6.2 ± 0.5 nM; that for B27, 28.5 ± 6.5 nM.
